Assays:
[1] = target: GFP-PIF^S-TCR (moxGFP-noF-PIF^S-TCRβ) (Aequorea victoria | A. thaliana | human) (UniProt Q8L5W7)
[2] = target: GFP-PIF^S-TCR (moxGFP-noF-PIF^S-TCRβ) (Aequorea victoria | A. thaliana | human) (UniProt Q8L5W7); remark: listed apart in the source
[3] = target: GFP-PIF^S-TCR (moxGFP-noF-PIF^S-TCRβ) (Aequorea victoria | A. thaliana | human) (UniProt Q8L5W7); assay: flow cytometry on cells + other: calcium influx (Indo-1), fit of a mathematical model; surface-bound DyLight650-PhyBt on GFP-PIF^S-TCR cells (90 s, 37 C, different PhyBt concentrations and continuous 660 nm intensities) and all calcium data fitted together by maximum likelihood; PhyBt modelled as dimers, off-rates of both steps set equal; parameters are for darkness
[4] = target: GFP-PIF^S-TCR (moxGFP-noF-PIF^S-TCRβ) (Aequorea victoria | A. thaliana | human) (UniProt Q8L5W7); assay: flow cytometry on cells + other: calcium influx (Indo-1), fit of a mathematical model; same fit as a6; half-life ln2/(koff+ki) under continuous 660 nm light, at the high end of the range of light intensities used

Chain of PhyB tetramers (fluorescently labeled streptavidin-based tetramers of PhyB_(1-651)-Avitag-His6) (P14713 1-651): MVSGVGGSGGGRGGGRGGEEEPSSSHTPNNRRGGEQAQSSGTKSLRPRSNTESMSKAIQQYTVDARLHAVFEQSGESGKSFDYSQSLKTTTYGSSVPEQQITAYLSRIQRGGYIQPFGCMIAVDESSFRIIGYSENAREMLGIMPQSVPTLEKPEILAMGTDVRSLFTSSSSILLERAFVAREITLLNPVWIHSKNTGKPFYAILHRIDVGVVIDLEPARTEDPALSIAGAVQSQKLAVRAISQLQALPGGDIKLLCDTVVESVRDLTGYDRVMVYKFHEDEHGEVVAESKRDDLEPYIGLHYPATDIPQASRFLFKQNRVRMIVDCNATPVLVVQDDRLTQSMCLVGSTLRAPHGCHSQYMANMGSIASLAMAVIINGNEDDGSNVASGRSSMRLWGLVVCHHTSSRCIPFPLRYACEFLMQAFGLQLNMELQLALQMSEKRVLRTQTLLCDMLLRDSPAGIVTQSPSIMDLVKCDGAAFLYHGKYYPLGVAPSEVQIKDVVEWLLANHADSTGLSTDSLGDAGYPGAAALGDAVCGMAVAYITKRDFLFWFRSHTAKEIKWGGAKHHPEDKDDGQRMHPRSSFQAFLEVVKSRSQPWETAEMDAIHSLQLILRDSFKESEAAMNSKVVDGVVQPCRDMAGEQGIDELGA
Chain of PhyB tetramers (fluorescently labeled streptavidin-based tetramers of PhyB_(1-651)-Avitag-His6) (P22629 25-183): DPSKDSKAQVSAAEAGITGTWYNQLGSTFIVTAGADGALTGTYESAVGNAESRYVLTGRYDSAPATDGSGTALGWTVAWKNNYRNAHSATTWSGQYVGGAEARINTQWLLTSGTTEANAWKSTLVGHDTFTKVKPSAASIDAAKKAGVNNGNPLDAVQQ

In the case of “PhyB tetramers (fluorescently labeled streptavidin-based tetramers of PhyB_(1-651)-Avitag-His6) (from UniProt P14713 1-651; P22629 25-183) (complex)”, the ongoing calcium response evoked by PhyBt(660) in the dark, then continuous 660 nm light of 2% to 32% intensity; intensity threshold to maintain the response (% 660 nm intensity) [1] is reported as 3, the calcium influx under continuous 660 nm light of different intensities (dark to 32%) and different PhyBt concentrations; intensity threshold for a calcium response (% 660 nm intensity) [2] is reported as 3 and the Kd [3] is reported as 22 nM. The Q = qon/qoff, association constant of multivalent binding step (darkness), dimensionless [3] was 11, the half-life of PhyB ON-PIF-TCR complex (darkness), ln(2)/koff [3] was 40 s and the qon, binding rate of receptor cross-linking (second, bivalent step) [3] was 0.19 s⁻¹. It also gave a half-life of the PhyB ON-TCR complex, ln2/(koff+ki), under continuous 660 nm light [4] of 2 s.

Source: PMC6488296
